US8318206

Key:
[1] = molecular target: T1, Fmoc-Gly-Phe-Cys-NH2 (peptide 1)
T1 chain: GFC

[2] = molecular target: T2, Fmoc-Gly-d-Phe-d-Cys (peptide 2) (not fully specified)
T2 chain: GFC

B1: thermolysin from B. thermoproteolyticus Rokko (protein)
chain: ITGTSTVGVGRGVLGDQKNINTTYSTYYYLQDNTRGNGIFTYDAKYRTTLPGSLWADADNQFFASYDAPAVDAHYYAGVTYDYYKNVHNRLSYDGNNAAIRSSVHYSQGYNNAFWNGSQMVYGDGDGQTFIPLSGGIDVVAHELTHAVTDYTAGLIYQNESGAINEAISDIFGTLVEFYANKNPDWEIGEDVYTPGISGDSLRSMSDPAKYGDPDHYSKRYTGTQDNGGVHINSGIINKAAYLISQGGTHYGVSVVGIGRDKLGKIFYRALTQYLTPTSNFSQLRAAAVQSATDLYGSTSQEVASVKQAFDAVGVK
[1]
  HPLC of the supernatant after thermolysin treatment (cleaved fragment): HPLC of the supernatant detected the presence of Fmoc-Gly only
  shift in the plasmon resonance peak (UV-visible spectra), 6 h after addition of 7.2 nM thermolysin: a clear shift in the plasmon resonance peak from 565 nm to 532 nm 6 h after addition of 7.2 nM thermolysin
  Δ ratio A/D over a period of 47 h, 7.2 nM thermolysin: The Δ ratio A/D increases over a period of 47 h for 7.2 nM and 2.08 zM, to 96.5% and 25.2% respectively
  Δ ratio A/D over a period of 47 h, 2.08 zM thermolysin: The Δ ratio A/D increases over a period of 47 h for 7.2 nM and 2.08 zM, to 96.5% and 25.2% respectively
[2]
  dispersion of nanoparticle aggregate: nanoparticles functionalised with Fmoc-Gly-d-Phe-d-Cys did not disperse upon introduction of thermolysin
